Tests used:
Assay in all cases: negative-stain EM
[1] = target: H5/1 GCN4 (IN05 head, PR8 stalk, GCN4-trimerized) (influenza A virus A/Puerto Rico/8/34/Mount Sinai(H1N1) | influenza A virus A/Indonesia/5/2005(H5N1))
[2] = target: H1/1 GCN4 (NL09 head, PR8 stalk, GCN4-trimerized) (influenza A virus A/Puerto Rico/8/34/Mount Sinai(H1N1) | influenza A virus A/Netherlands/602/2009(H1N1))
[3] = target: H1 GCN4 (NL09 HA, GCN4-trimerized) (influenza A virus A/Netherlands/602/2009(H1N1))
[4] = target: H2/1 GCN4 (SG57 head, PR8 stalk, GCN4-trimerized) (influenza A virus A/Puerto Rico/8/34/Mount Sinai(H1N1) | influenza A virus A/Singapore/1/1957(H2N2))

Substance	stoichiometry N (Fabs per trimer) [1]	stoichiometry N (Fabs per trimer) [2]	stoichiometry N (Fabs per trimer) [3]	stoichiometry N (Fabs per trimer) [4]	stoichiometry N [2]
CR9114 Fab	3	3	3	3	–
H1/1 GCN4 (NL09 head, PR8 stalk, GCN4-trimerized) (domain or fragment)	–	–	–	–	3

From article PMC10998906
